Measured values as given in the supplement of paper PMC10567573.

B1: PPFIA4 (parent)
chain: YAGNLHESGVHGALLALDENFDHN

Variants of: B1
Test: protein stability index of a GFP-peptide fusion (GPS, HEK-293T) (PSI 1-6); higher = more stable
Details: c terminus: a fixed tail appended
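Further: lentivirally expressed fusions sorted by FACS into six bins by GFP to DsRed ratio, PSI derived from sequencing read proportions per bin multiplied by bin number.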

Protein stability index of substitutions, site by site:
F21: A 2.9, N 3.85, G 3.58, D 3.92, M 2.85, C 3.23, K 2.89, E 3.93, H 3, I 2.69, L 3.51
G12: T 3.22, V 1.95, Y 1.7, S 3.28, W 3.02
A13: Q 3.8, S 2.33, C 2.21, I 1.86, W 3.04, G 2.65, H 2.67, L 2.06, M 1.49, V 2.07, N 2.66, F 1.73, T 2.86, Y 3.02, P 2.96, R 2.41, D 4.32, K 2.96, E 4.13
A16: N 3.23, P 3.43, M 2.43, S 3.2, T 3.34, Q 3.31, D 3.85, R 2.99, H 3.25, F 3.06, C 2.39, W 3.58, G 1.77, L 2.36, Y 2.06, I 1.97, E 4.12, V 2.31, K 2.73
N20: P 2.63, M 2.09, K 2.23, T 2.16, W 2.27, D 2.98, C 2.32, E 3.07, F 2.17, H 2.48, S 2.58, L 1.63, Y 2.24, I 1.79, Q 1.86, A 2.68, G 3.1, R 2.25, V 2.42
L14: A 3.27, Q 4.02, P 4.03, F 1.81, Y 2.47, C 2.36, N 3.8, T 3.56, H 3.8, R 3.31, V 2.16, I 1.97, E 3.83, M 3.07, D 4.59, G 3.63, S 3.45, W 1.43, K 3.15
L17: I 2.02, N 3.86, M 2.96, P 3.35, A 3.43, F 2.16, Q 3.37, V 2.47, Y 1.76, C 3.21, T 3.04, R 3.31, K 3.24, H 4.06, E 4.52, G 3.4, S 4.03, W 2.4, D 4.18
D18: C 1.34, W 2, H 2.11, M 2.38, L 1.76, E 2.82, Q 2.65, T 2.13, K 2.54, R 2.55, V 2.07, F 1.69, N 2.74, Y 2.14, P 2.16, A 1.66, S 1.87, G 1.95, I 2.2
L15: Y 2.31, G 3.54, V 3.29, E 4.23, I 2.22, P 4.09, D 4.06, T 3.78, M 2.93, R 2.8, C 3.06, F 2.2, Q 3.52, K 3.46, N 3.89, A 4.13, H 3.31, S 3.87
E19: Y 1.61, C 1.33, K 1.5, R 2.06, P 1.6, F 1.61, L 1.24, W 3.17, D 2.6, Q 1.64, M 1.65, H 1.31, I 2.97, V 2, A 2.08, T 2.68, S 1.54, N 2.2, G 2.1
